Reference: patent US20180355044A1 (CELLERANT THERAPEUTICS, published 2018)

Columns and labels:
[1] = target: T1, C type Lectin Like molecule 1 (CLL-1), human, on cells (human, UniProt Q5QGZ9 1-265); assay: flow cytometry on HNT-34 cells, MFI of C6-CLT-D202 ADC over MFI of control C0-CLT-D202 ADC; CLL-1 expression of this line not stated
T1 construct: whole, on cells; also called CLEC12A; DCAL-2
T1 sequence (looked up): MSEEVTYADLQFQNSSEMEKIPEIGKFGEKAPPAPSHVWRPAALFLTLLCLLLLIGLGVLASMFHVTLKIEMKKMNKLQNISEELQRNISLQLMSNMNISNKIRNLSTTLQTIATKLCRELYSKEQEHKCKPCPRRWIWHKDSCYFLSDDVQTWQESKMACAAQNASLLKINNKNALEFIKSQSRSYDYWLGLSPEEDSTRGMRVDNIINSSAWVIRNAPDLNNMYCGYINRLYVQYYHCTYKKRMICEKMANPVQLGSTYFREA

[2] = target: T1, C type Lectin Like molecule 1 (CLL-1), …; assay: cell-based or functional assay
[3] = target: T1, C type Lectin Like molecule 1 (CLL-1), …; assay: flow cytometry on KG-1a cells, MFI of C6-CLT-D202 ADC over MFI of control C0-CLT-D202 ADC; CLL-1 expression of this line not stated
[4] = target: T1, C type Lectin Like molecule 1 (CLL-1), …; assay: flow cytometry on AML5 cells (express CLL-1), MFI of C6-CLT-D202 ADC over MFI of control C0-CLT-D202 ADC
[5] = target: T1, C type Lectin Like molecule 1 (CLL-1), …; assay: flow cytometry on AML2 cells, MFI of C6-CLT-D202 ADC over MFI of control C0-CLT-D202 ADC; CLL-1 expression of this line not stated
[6] = target: T1, C type Lectin Like molecule 1 (CLL-1), …; assay: flow cytometry on U937 cells (listed as CLL-1 expressing in paragraph 160), MFI of C6-CLT-D202 ADC over MFI of control C0-CLT-D202 ADC
[7] = target: T1, C type Lectin Like molecule 1 (CLL-1), …; assay: cell-based or functional assay; remark: listed apart in the source
[8] = target: T1, C type Lectin Like molecule 1 (CLL-1), …; assay: flow cytometry on HEL92.1.7-CLL1 cells, MFI of C6-CLT-D202 ADC over MFI of control C0-CLT-D202 ADC
[9] = target: T1, C type Lectin Like molecule 1 (CLL-1), …; assay: flow cytometry on SHI-1 cells, MFI of C6-CLT-D202 ADC over MFI of control C0-CLT-D202 ADC; CLL-1 expression of this line not stated
[10] = target: T1, C type Lectin Like molecule 1 (CLL-1), …; assay: flow cytometry on PL21 cells, MFI of C6-CLT-D202 ADC over MFI of control C0-CLT-D202 ADC; CLL-1 expression of this line not stated
[11] = target: T1, C type Lectin Like molecule 1 (CLL-1), …; assay: flow cytometry on EOL-1 cells, MFI of C6-CLT-D202 ADC over MFI of control C0-CLT-D202 ADC; CLL-1 expression of this line not stated
[12] = target: T1, C type Lectin Like molecule 1 (CLL-1), …; assay: cell-based or functional assay; remark: listed apart in the source
[13] = target: T1, C type Lectin Like molecule 1 (CLL-1), …; assay: flow cytometry on HL-60 cells (express CLL-1), MFI of C6-CLT-D202 ADC over MFI of control C0-CLT-D202 ADC
[14] = target: T1, C type Lectin Like molecule 1 (CLL-1), …; assay: competition by flow cytometry on 293-CLL1 cells; Alexa488-labelled ChiM31 is displaced by the unlabelled antibody (half-maximal displacement, headed EC50 on the sheet)
Procedure: FIG. 10 is an […] of competitive binding to 293CLL1 cells. ChiM31 was labelled with Alex488. Binding of ChiM31-Alex488 antibody in the presence of ChiM31, HuM31 and mouse M31 starting at 30 μg/ml and serial 3-fold dilutions, was analyzed. Absorbance values MFI (Y-axis) are plotted at each antibody concentration tested (X-axis) in the figure. IC₅₀ values were calculated using GraphPad Prism.
Referring to FIG. 10, ChiM31 was labeled with Alexa488. 293-CLL1 cells were pre-incubated with 1 μg of labeled ChiM31, and then completed with various amount of ChiM31 and HuM31. FACS were performed and data were analyzed and EC50 were calculated.

CLL-1 bearing a His Tag [15] = target: T2, CLL-1 bearing a His Tag; assay: competitive ELISA on His-tagged CLL-1; binding of mouse M31 is detected, the named antibody is the competitor
T2 construct: also called CLL1 His Tag antigen; His Tag antigen; not shown: The exact limits of the construct are not described
T2 chain: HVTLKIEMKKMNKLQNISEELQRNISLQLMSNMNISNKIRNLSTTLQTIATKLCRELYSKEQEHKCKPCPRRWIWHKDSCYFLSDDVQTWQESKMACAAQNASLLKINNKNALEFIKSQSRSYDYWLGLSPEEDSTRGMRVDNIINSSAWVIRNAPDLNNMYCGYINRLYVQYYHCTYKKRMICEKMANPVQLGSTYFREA
Procedure: FIG. 9 is an ELISA analysis of competitive binding affinity of ChM31 (SEQ ID NO:14/SEQ ID NO:10), HuM31-VH1/VL2 (SEQ ID NO:15/SEQ ID NO:12), HuM31-VH2/VL2 (SEQ ID NO:16/SEQ ID NO:12), HuM31-VH3/VL2 (SEQ ID NO:17/SEQ ID NO:12), and HuM31-VH4/VL2 (SEQ ID NO:18/SEQ ID NO:12), antibodies to CLL-1 bearing a His Tag. Binding of mouse M31 antibody in the presence of ChM31, HuM31-VH2/VL2, HuM31-VH3/VL2 or HuM31-VH4/VL2 antibody, starting at 25 μg/ml and serial 3-fold dilutions, was analyzed. Absorbance values (Y-axis) are plotted at each antibody concentration tested (X-axis) in the figure. IC₅₀ values were calculated using GraphPad Prism.
Referring to FIG. 9, binding of mouse M31 antibody in the presence of ChM31, HuM31-VH2/VL2, HuM31-VH3/VL2 or HuM31-VH4/VL2 antibody, starting at 25 μg/mL and serial 3-fold dilutions, was analyzed. Absorbance values (Y-axis) are plotted at each antibody concentration tested (X-axis) in the figure. IC50 values were calculated using GraphPad Prism.

CLL-1 bearing a His Tag [16] = target: T2, CLL-1 bearing a His Tag; assay: ELISA on His-tagged CLL-1, purified antibody
Procedure: FIG. 8 is an ELISA analysis of the binding of purified ChM31 (SEQ ID NO:14/SEQ ID NO:10), HuM31-VH2/VL2 (SEQ ID NO:16/SEQ ID NO:12), HuM31-VH3/VL2 (SEQ ID NO:17/SEQ ID NO:12), and HuM31-VH4/VL2 (SEQ ID NO:18/SEQ ID NO:12), antibodies to CLL-1 bearing a His Tag. Each antibody was tested at various concentrations, starting at 1 μg/ml and serial 2-fold dilutions. Absorbance values (Y-axis) are plotted at each antibody concentration tested (X-axis) in the figure.
Referring to FIG. 8, each antibody was tested at various concentrations, starting at 1 μg/mL and serial 2-fold dilutions. Absorbance values (Y-axis) are plotted at each antibody concentration tested (X-axis) in the figure.

B1: C6-CLT-D202 ADC (humanized, cys-substituted at position 239 anti-CLL1 antibody C6-S239C-CYSMAB conjugated to CLT-D202) (antibody, V domains shown)
VH: EVQLVQSGAEVKKPGASVKMSCKASGYTFTSYFIHWVRQAPGQGLEWIGFINPYNDGSKYAQKFQGRATLTSDKSTSTVYMELSSLRSEDTAVYYCTRDDGYYGYAMDYWGQGTLVTVSS
VL: DIQMTQSPSSLSASVGDRVTLTCRATQELSGYLSWLQQKPGKAIKRLIYAASTLDSGVPSRFSGNRAGTDYTLTISSLQPEDFATYYCLQYAIYPYTFGQGTKLEIK
modifications: S239C in the heavy chain constant region (constant region sequence not given); CLT-D202 drug-linker conjugated to the engineered Cys 239; drug to antibody ratio 1.7
notes: Only variable regions are printed; it carries S239C; also called C6-D202; CLL1-ADC
relative MFI C6/C0 [1]: 5.8 ratio | IC50, cytotoxicity on TF1-CLL1 cells [2]: 0.008 µg/mL | relative MFI C6/C0 [3]: 1.3 ratio | relative MFI C6/C0 [4]: 15 ratio | relative MFI C6/C0 [5]: 13 ratio | relative MFI C6/C0 [6]: 14.7 ratio | IC50, cytotoxicity on AML2 cells [7]: 0.003 µg/mL | IC50, cytotoxicity on AML5 cells [7]: 0.013 µg/mL | IC50, cytotoxicity on EOL-1 cells [7]: 0.0137 µg/mL | IC50, cytotoxicity on HEL92.1.7-CLL1 cells [7]: 0.017 µg/mL | IC50, cytotoxicity on HL-60 cells [7]: 0.011 µg/mL | IC50, cytotoxicity on HNT-34 cells [7]: 3.5 µg/mL | IC50, cytotoxicity on KG-1a cells [7]: 82.8 µg/mL | IC50, cytotoxicity on PL21 cells [7]: 0.199 µg/mL | IC50, cytotoxicity on SHI-1 cells [7]: 5.67 µg/mL | IC50, cytotoxicity on U937 cells [7]: 11.7 µg/mL | relative MFI C6/C0 [8]: 26.1 ratio | relative MFI C6/C0 [9]: 1.4 ratio | relative MFI C6/C0 [10]: 14.7 ratio | relative MFI C6/C0 [11]: 20.5 ratio | IC50, killing of proliferating AML-5 cells [12]: 0.03 µg/mL | IC50, killing of quiescent AML-5 cells [12]: 0.02 µg/mL | cell killing of HL-60 cells, relative to the control ADC [12]: > 500 fold | decrease in IC50, TF1-CLL1 against TF1 cells [12]: ~1000 fold | relative MFI C6/C0 [13]: 20 ratio

B2: Hu M31 (antibody, V domains shown)
VH: QVQLVQSGAEVKKPGASVKVSCKASGYTFTSYVMHWVRQAPGQRLEWIGYINPYNDGTKYNEKFKGKATITSDTSASTAYMELSSLRSEDTAVYYCARPIYFDNDYFDYWGQGTLVTVSS
VL: DIVMTQSPDSLAVSLGERATINCRASESVDSYGNSFMHWYQQKPGQPPKLLIYLASNLESGVPDRFSGSGSGTDFTLTISSLQAEDVAVYYCQQNNYDPWTFGGGTKVEIK
EC50 [14]: 1.77 µg/mL

B3: ChM31 (antibody, V domains shown)
VH: EVQLQQSGPELVKPGASVKMSCKASGYTFTSYVMHWVKQKPGQGLEWIGYINPYNDGTKYNEKFKGKATLTSDTSSSTAYMELNSLTSEDSAVYFCARPIYFDNDYFDYWGQGTTLKVSS
VL: TIVLTQSPASLAVSLGQRATISCRASESVDSYGNSFMHWYQQKPGQPPKLLIYLASNLESGVPARFSGSGSRTDFTLTIDPVEADDAATYYCQQNNYDPWTFGGGTKLEIK
notes: chimeric M31; also called Chi M31; ChiM31
EC50 [14]: 0.71 µg/mL | IC50 (read off the curve) (CLL-1 bearing a His Tag [15]): ~0.6 µg/mL | EC50 (read off the curve) (CLL-1 bearing a His Tag [16]): ~0.05 µg/mL

B4: HuM31-VH2/VL2 (antibody, V domains shown)
VH: QVQLVQSGAEVKKPGASVKVSCKASGYTFTSYVMHWVRQAPGQRLEWIGYINPYNDGTKYNEKFKGRATLTSDTSTSTAYMELRSLRSDDTAVYYCARPIYFDNDYFDYWGQGTTVTVSS
VL: DIVMTQSPDSLAVSLGERATINCRASESVDSYGNSFMHWYQQKPGQPPKLLIYLASNLESGVPARFSGSGSGTDFTLTIDPVEADDAATYYCQQNNYDPWTFGGGTKLEIK
notes: humanized M31 variant
EC50 (read off the curve) (CLL-1 bearing a His Tag [16]): ~0.06 µg/mL

B5: HuM31-VH4/VL2 (antibody, V domains shown)
VH: QVQLVQSGAEVKKPGASVKVSCKASGYTFTSYVMHWVRQAPGRRLEWIGYINPYNDGTKYNEKFKGRVTITSDTSASTAYMELSSLRSEDTAVYYCARPIYFDNDYFDYWGQGTLVTVSS
VL: DIVMTQSPDSLAVSLGERATINCRASESVDSYGNSFMHWYQQKPGQPPKLLIYLASNLESGVPARFSGSGSGTDFTLTIDPVEADDAATYYCQQNNYDPWTFGGGTKLEIK
notes: humanized M31 variant
EC50 (read off the curve) (CLL-1 bearing a His Tag [16]): ~0.04 µg/mL

B6: HuM31-VH3/VL2 (antibody, V domains shown)
VH: QVQLVQSGAEVKKPGASVKVSCKASGYTFTSYVMHWVRQAPGRRLEWIGYINPYNDGTKYNEKFKGKATITSDTSASTAYMELSSLRSEDTAVYYCARPIYFDNDYFDYWGQGTLVTVSS
VL: DIVMTQSPDSLAVSLGERATINCRASESVDSYGNSFMHWYQQKPGQPPKLLIYLASNLESGVPARFSGSGSGTDFTLTIDPVEADDAATYYCQQNNYDPWTFGGGTKLEIK
notes: humanized M31 variant
EC50 (read off the curve) (CLL-1 bearing a His Tag [16]): ~0.04 µg/mL
